The chains are these.
B1: SCIN-A: full-length staphylococcal complement inhibitor SCIN-A, Staphylococcus aureus strain Mu50 (protein)
chain: STSLPTSNEYQNEKLANELKSLLDELNVNELATGSLNTYYKRTIKISGQKAMYALKSKDFKKMSEAKYQLQKIYNEIDEALKSKY
B2: SCIN-A.R42A: full-length SCIN-A with Arg-42 alanine mutation (protein)
chain: STSLPTSNEYQNEKLANELKSLLDELNVNELATGSLNTYYKATIKISGQKAMYALKSKDFKKMSEAKYQLQKIYNEIDEALKSKY
B3: SCIN-A.Q49A (protein)
chain: STSLPTSNEYQNEKLANELKSLLDELNVNELATGSLNTYYKRTIKISGAKAMYALKSKDFKKMSEAKYQLQKIYNEIDEALKSKY

C3b, sequence (P01024 23-667 limits assumed): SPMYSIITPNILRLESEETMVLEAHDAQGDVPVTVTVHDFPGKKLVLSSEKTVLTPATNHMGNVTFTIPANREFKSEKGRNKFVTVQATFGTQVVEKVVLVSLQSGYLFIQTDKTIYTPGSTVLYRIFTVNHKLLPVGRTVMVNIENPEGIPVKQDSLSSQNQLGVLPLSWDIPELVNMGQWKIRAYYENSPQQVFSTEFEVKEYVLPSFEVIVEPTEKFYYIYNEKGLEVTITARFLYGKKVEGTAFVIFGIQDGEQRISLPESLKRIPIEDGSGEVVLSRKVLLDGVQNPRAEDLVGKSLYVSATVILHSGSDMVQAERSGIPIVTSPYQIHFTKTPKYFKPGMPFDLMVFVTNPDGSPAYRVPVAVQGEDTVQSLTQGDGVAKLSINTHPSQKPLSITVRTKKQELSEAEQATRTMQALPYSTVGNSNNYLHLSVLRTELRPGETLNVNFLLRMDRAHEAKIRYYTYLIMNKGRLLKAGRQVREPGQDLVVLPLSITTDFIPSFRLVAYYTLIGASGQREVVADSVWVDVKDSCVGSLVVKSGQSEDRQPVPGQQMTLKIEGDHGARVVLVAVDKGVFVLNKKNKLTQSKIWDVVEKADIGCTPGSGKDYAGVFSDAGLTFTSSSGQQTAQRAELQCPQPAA
C3b, sequence (P01024 749-1663 limits assumed): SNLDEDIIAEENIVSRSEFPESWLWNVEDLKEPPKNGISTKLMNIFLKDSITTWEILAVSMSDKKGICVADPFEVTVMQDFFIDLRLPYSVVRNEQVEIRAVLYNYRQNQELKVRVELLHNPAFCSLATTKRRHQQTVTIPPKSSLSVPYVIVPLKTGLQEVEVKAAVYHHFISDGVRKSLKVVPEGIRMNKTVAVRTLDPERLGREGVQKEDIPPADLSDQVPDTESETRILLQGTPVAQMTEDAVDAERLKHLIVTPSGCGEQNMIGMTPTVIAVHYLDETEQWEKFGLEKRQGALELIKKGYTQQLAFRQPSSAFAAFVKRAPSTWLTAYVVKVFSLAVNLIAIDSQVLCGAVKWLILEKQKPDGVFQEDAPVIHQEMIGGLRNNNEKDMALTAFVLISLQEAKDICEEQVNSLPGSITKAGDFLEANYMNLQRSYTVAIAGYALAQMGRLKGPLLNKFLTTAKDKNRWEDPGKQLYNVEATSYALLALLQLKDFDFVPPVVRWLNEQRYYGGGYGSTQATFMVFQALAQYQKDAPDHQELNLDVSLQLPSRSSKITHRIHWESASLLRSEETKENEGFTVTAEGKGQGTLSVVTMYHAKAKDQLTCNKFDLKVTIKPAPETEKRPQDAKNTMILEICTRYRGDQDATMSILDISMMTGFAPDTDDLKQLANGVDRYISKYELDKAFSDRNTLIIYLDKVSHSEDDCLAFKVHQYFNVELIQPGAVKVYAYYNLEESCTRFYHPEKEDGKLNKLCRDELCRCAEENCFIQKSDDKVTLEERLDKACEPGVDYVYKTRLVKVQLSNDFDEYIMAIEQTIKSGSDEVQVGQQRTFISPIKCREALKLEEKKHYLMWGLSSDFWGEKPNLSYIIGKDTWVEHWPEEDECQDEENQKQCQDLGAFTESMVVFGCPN

The assay concerns the target C3b (Homo sapiens, UniProt P01024). Kind of assay: SPR direct binding to site-specifically immobilized C3b. The following applies: SPR kinetic analysis, 1:1 Langmuir model.
Take B1: the ka result is “(5.5 ± 0.15) × 10^5 M^−1s^−1” and the kd result is reported as “(5.1 ± 0.52) × 10^−2 s^−1”.

Consider B2, for which the ka result is on record as “(8.9 ± 0.15) × 10^4 M^−1s^−1” and the kd result is given as “(5.8 ± 0.45) × 10^−1 s^−1”.

Consider B3, for which the ka result is recorded as “(7.6 ± 2.0) × 10^5 M^−1s^−1” and the kd entry is “(5.1 ± 0.73) × 10^−2 s^−1”.

Source of the values: paper PMC4565748 (Molecular immunology, 2015).
